Experimental data: patent US6436691B1, “Chemical compounds” (Zeneca Limited, priority 1995, dated 2002)
Numbering of substitutions follows the chain as printed. Names may count otherwise.

B1: [A248S,G251T,D253K]HCPB: HCPB mutant with A248S, G251T and D253K, (His)6-c-myc tag (protein, UniProt P15086 111-417, looked up, variant A248S G251T D253K)
Carboxypeptidase B: ATGHSYEKYNKWETIEAWTQQVATENPALISRSVIGTTFEGRAIYLLKVGKAGQNKPAIFMDCGFHAREWISPAFCQWFVREAVRTYGREIQVTELLDKLDFYVLPVLNIDGYIYTWTKSRFWRKTRSTHTGSSCIGTDPNRNFDAGWCEIGASRNPCDETYCGPAAESEKETKALADFIRNKLSSIKAYLTIHSYSQMMIYPYSYAYKLGENNAELNALAKATVKELASLHGTKYTYGPGATTIYPSAGTSKDWAYDQGIRYSFTFELRDTGRYGFLLPESQIRATCEETFLAIKYVASYVLEHLY
modifications: (His)6-c-myc tag
B2: [A248N, G251T, D253K]: HCPB mutant with A248N, G251T and D253K, (His)6-c-myc tag (protein, UniProt P15086 111-417, looked up, variant A248N G251T D253K)
Carboxypeptidase B: B1 Carboxypeptidase B with S248N
modifications: (His)6-c-myc tag
B3: [S205N, G251N, D253K]: HCPB mutant with S205N, G251N and D253K, (His)6-c-myc tag (protein, UniProt P15086 111-417, looked up, variant S205N G251N D253K)
Carboxypeptidase B: B1 Carboxypeptidase B with S205N, S248A, T251N
modifications: (His)6-c-myc tag
B4: [G251Q, D253K]: HCPB mutant with G251Q and D253K (protein, UniProt P15086 111-417, looked up, variant G251Q D253K)
Carboxypeptidase B: B1 Carboxypeptidase B with S248A, T251Q
B5: [A248H, D253K]: HCPB mutant with A248H and D253K (protein, UniProt P15086 111-417, looked up, variant A248H D253K)
Carboxypeptidase B: B1 Carboxypeptidase B with S248H, T251G
B6: [G251N,D253R]: HCPB mutant with G251N and D253R, (His)6-c-myc tag (protein, UniProt P15086 111-417, looked up, variant G251N D253R)
Carboxypeptidase B: B1 Carboxypeptidase B with S248A, T251N, K253R
modifications: (His)6-c-myc tag
B7: [G251N,D253K]: HCPB mutant with G251N and D253K, (His)6-c-myc tag (protein, UniProt P15086 111-417, looked up, variant G251N D253K)
Carboxypeptidase B: B1 Carboxypeptidase B with S248A, T251N
modifications: (His)6-c-myc tag
B8: [A248S, G251S, D253K]: HCPB mutant with A248S, G251S and D253K (protein, UniProt P15086 111-417, looked up, variant A248S G251S D253K)
Carboxypeptidase B: B1 Carboxypeptidase B with T251S
B9: [G251N, D253K, T266G]: HCPB mutant with G251N, D253K and T266G, (His)6-c-myc tag (protein, UniProt P15086 111-417, looked up, variant G251N D253K T266G)
Carboxypeptidase B: B1 Carboxypeptidase B with S248A, T251N, T266G
modifications: (His)6-c-myc tag
B10: [A248N, G251N, D253K]: HCPB mutant with A248N, G251N and D253K, (His)6-c-myc tag (protein, UniProt P15086 111-417, looked up, variant A248N G251N D253K)
Carboxypeptidase B: B1 Carboxypeptidase B with S248N, T251N
modifications: (His)6-c-myc tag
B11: [I245H, D253K]: HCPB mutant with I245H and D253K (protein, UniProt P15086 111-417, looked up, variant I245H D253K)
Carboxypeptidase B: B1 Carboxypeptidase B with I245H, S248A, T251G
B12: [A248S, G251N, D253K]: HCPB mutant with A248S, G251N and D253K, (His)6-c-myc tag (protein, UniProt P15086 111-417, looked up, variant A248S G251N D253K)
Carboxypeptidase B: B1 Carboxypeptidase B with T251N
modifications: (His)6-c-myc tag
B13: [G251V, D253K]: HCPB mutant with G251V and D253K (protein, UniProt P15086 111-417, looked up, variant G251V D253K)
Carboxypeptidase B: B1 Carboxypeptidase B with S248A, T251V

Assays:
Format in all cases: biochemical
[1] = Conversion of Hipp-Asp by purified HCPB mutants, 30 minutes, HPLC (Example 17); conditions: 0.5 mM substrate, 30 minutes at 37° C.
Protocol: (§1) Purified mutants of human CPB (D253K; [G251K,D253R]; [G251N,D253R]; [I201S,D253K]; [G251N,D253K]; [Q54R,D145A,D253K]; [G251T,D253K]; [G251S,D253K]; [A248N,G251N,D253K]; [A248S,G251N,D253K] and [S205N,G251N,D253K]—described in Examples 3, 12, 13, 16, 28, 30, 31, 32 and 33) were assayed for their ability to convert hippuryl-L-glutamic acid (Hipp-Glu—Reference Example 1), hippuryl-L-aspartic acid (Hipp-Asp—Reference Example 2) and hippuryl-L-arginine (Sigma Chemical Company—cat no. H6625) to hippuric acid using a HPLC based assay similar to that described in Example 6.
(§2) Samples were incubated for 30 minutes at 37° C. The reactions were terminated by the addition of 500 μl of 40% methanol, 60% distilled water, 0.2% trifluoro acetic acid and the amount of hippuric acid generated was quantitated by HPLC as described in Example 6 but using a mobile phase of 20% methanol, 80% 50 mM phosphate buffer, pH 6.5. Hippuric acid was detected at 230 nm. The results are shown in Table 5 and are expressed as the percentage conversion of substrate into product in 30 minutes at 37° C.

[2] = Conversion of Hipp-Glu by periplasmic shockate of HCPB mutants, 24 h (Example 18); conditions: 24 h at 37° C.
Protocol: (§3) The activity of [G251T,D253K]HCPB was measured using the assay conditions described in Example 17 but using either 50 μl of a neat or 1 in 10 or 1 in 100 dilution of [G251T,D253K]HCPB crude E.coli periplasmic shockate (shockate) sample in place of purified enzyme. Samples were incubated for 24 h at 37° C. […] For other HCPB mutants, the reaction volume was 250 μl and contained 125 μl of neat shockate or 1 in 50 dilution of shockate. The shockate samples were prepared as described in Example 16. The amount of Hippuric acid produced in 24 h was quantified by HPLC as described in Example 17 and the results are shown in Table 6 and are expressed as the percentage conversion of substrate into product in 24 h at 37° C.

[3] = Conversion of Hipp-Arg by purified HCPB mutants, 30 minutes, HPLC (Example 17); conditions: 0.5 mM substrate, 30 minutes at 37° C.
Protocol: as §1, §2

[4] = Conversion of Hipp-Asp by periplasmic shockate of HCPB mutants, 24 h (Example 18); conditions: shockate concentration in reaction mixture 50 %; 24 h at 37° C.
Protocol: as §3

[5] = Conversion of Hipp-Glu by purified HCPB mutants, 30 minutes, HPLC (Example 17); conditions: 0.5 mM substrate, 30 minutes at 37° C.
Protocol: as §1, §2

[6] = Km and kcat of HCPB mutants with Hipp-Glu (Example 7); conditions: Hipp-Glu 0.25-8.0 mM; pH 7.5; 5 h at 37° C.
Protocol: Hipp-Glu and Hipp-Asp were diluted in range 0.25-8.0 mM and 0.25-5.0 mM respectively in 0.025 M Tris-HCL buffer, pH 7.5. Where necessary substrate samples were adjusted to pH 7.5 with 1M NaOH.
Samples were incubated for 5 h at 37° C. Reactions were terminated by the addition of 500 μl methanol/distilled water (80/20) containing 0.2% TFA. The amount of hippuric acid produced was quantified by HPLC as described in Example 6.
Km and Vmax values were calculated using the ENZFITTER software programme (Biosoft, Perkin Elmer).

[7] = Activity against Hipp-Asp in crude E. coli periplasmic shockate relative to D253K or D253R HCPB (Example 16)
Source text: A number of other mutant HCPBs have been constructed in a similar manner to the methods described in Reference Examples 7 and 8, and Examples 12, 13, 14 and 15. In each case oligos were constructed to introduce specific changes in the gene sequence by methods similar to those described above. In some cases additional mutations were identified upon complete sequencing of the mutated gene, and these were presumably introduced during the PCR reactions. Mutants with enzyme activity against substrate analogues (see Example 18 below) have been identified, and examples of these are given in Table 4 below. […] This material is subsequently referred to as periplasmic shockate or shockate and is prepared by the following procedure.
1. A single colony was used to inoculate 75 ml of L-broth nutrient media containing 10 μg/ml tetracycline and arabinose to a final concentration of 0.01% (w/v). Incubation was performed at 20° C. with shaking (250 rpm) for about 60 hours.
2. The cells were then harvested by centrifugation at 4° C.
3. The cell pellet was re-suspended in 300 micro-liters of 20% sucrose (w/v) containing 1 mM EDTA in 200 mM Tris-HCl at pH7.5, and incubated at room-temperature for 15 minutes.
4. Periplasmic shockate was generated by the addition of 450 micro-liters of distilled water, and a further incubation at room-temperature for 15 minutes.
5. Cellular remains were removed by centrifugation, and the supernatant assayed for enzyme activity as soon as possible after preparation and kept at 4° C. prior to assay.
as §3

[8] = Conversion of prodrug of Example 24 to drug of Example 25 by HCPB mutants, HPLC (Example 20); conditions: enzyme 15 μg/ml; 0.5 mM prodrug of Example 24; 5 minutes at 37° C.
Protocol: The reaction was stopped by adding MeCN (500 μl) plus 0.2% Trifluoroacetic acid. The amount of drug produced was then quantified by HPLC.
HPLC separation was carried out as described in Example 6 except that a mobile phase of 70% MeCN, 30% distilled water and 0.1% trifluoroacetic acid was used to achieve separation of prodrug (retention time 3.8 minutes) and drug (retention time 4.9 minutes) and the compounds were detected at 260 nm. The amount of drug produced was quantified from calibration curves generated with known amounts of drug.
The amount of [Q54R,D145A,D253K]HCPB and [G251T,D253K]HCPB mutants was reduced to 0.75 μg in the reaction mixture.

[9] = shockate concentration in reaction mixture 1 %
[10] = shockate concentration in reaction mixture 50 %

Molecule | Hipp-Asp (% conversion) ([1]; enzyme 25 μg/ml) [%] | Hipp-Glu (% conversion) [2, 10] [%] | Hipp-Arg (% conversion) ([3]; enzyme 25 μg/ml) [%] | Hipp-Asp (% conversion) [4] [%] | Hipp-Glu (% conversion) ([5]; enzyme 25 μg/ml) [%] | Hipp-Asp, activity relative to D253K HCPB or D253R HCPB [7] | other results
B1 | 5.5 | 91.3 | 0 | 0.5 | 93 | – | Hipp-Asp (% conversion) ([1]; enzyme 0.25 μg/ml): 0%; Hipp-Glu (% conversion) [2, 9]: 20%; Hipp-Arg (% conversion) ([3]; enzyme 0.25 μg/ml): 0%; Hipp-Glu (% conversion) ([5]; enzyme 0.25 μg/ml): 14.5%; Km [6]: 1100 µM; kcat, Hipp-Glu [6]: 19 s⁻¹
B2 | – | 95 | – | 1 | – | – | Hipp-Glu (% conversion) [2, 9]: 53.5%
B3 | 0.48 | 14.1 | 0.2 | 0 | 85 | – | Hipp-Asp (% conversion) ([1]; enzyme 0.5 μg/ml): 0%; Hipp-Arg (% conversion) ([3]; enzyme 0.5 μg/ml): 0%; Hipp-Glu (% conversion) ([5]; enzyme 0.5 μg/ml): 7.9%
B4 | – | – | – | – | – | NAD (No activity detected) | –
B5 | – | – | – | – | – | NAD (No activity detected) | –
B6 | 9.4 | – | 0 | – | 57 | – | Hipp-Asp (% conversion) ([1]; enzyme 2.5 μg/ml): 1.4%; Hipp-Arg (% conversion) ([3]; enzyme 2.5 μg/ml): 0%; Prodrug Hydrolysis (%) [8]: 66.7%; Hipp-Glu (% conversion) ([5]; enzyme 2.5 μg/ml): 8.8%
B7 | 8.3 | – | 1.8 | – | 100 | – | Hipp-Asp (% conversion) ([1]; enzyme 2.5 μg/ml): 1.9%; Hipp-Arg (% conversion) ([3]; enzyme 2.5 μg/ml): 0.4%; Prodrug Hydrolysis (%) [8]: 75.9%; Hipp-Glu (% conversion) ([5]; enzyme 2.5 μg/ml): 62.4%; Km [6]: 2300 µM; kcat, Hipp-Glu [6]: 24 s⁻¹
B8 | – | – | – | – | – | NAD (No activity detected) | –
B9 | – | 0.95 | – | 3.4 | – | – | –
B10 | 2.5 | 63.9 | 1.4 | 0 | 100 | – | Hipp-Asp (% conversion) ([1]; enzyme 0.25 μg/ml): 0.6%; Hipp-Arg (% conversion) ([3]; enzyme 0.25 μg/ml): 0%; Hipp-Glu (% conversion) ([5]; enzyme 0.25 μg/ml): 25.3%
B11 | – | – | – | – | – | NAD (No activity detected) | –
B12 | 1.3 | 46.1 | 0 | 1 | 86 | – | Hipp-Asp (% conversion) ([1]; enzyme 0.5 μg/ml): 0%; Hipp-Arg (% conversion) ([3]; enzyme 0.5 μg/ml): 0%; Hipp-Glu (% conversion) ([5]; enzyme 0.5 μg/ml): 10.7%
B13 | – | – | – | – | – | NAD (No activity detected) | –
